Binding result and Kd data for two molecules are collected here from patent publication US20230181772A1 (CITY OF HOPE, published 2023).

The target of one experiment is T1, BSA (UniProt P02769 25-607).
T1 construct: Negative control coating in the ELISA; also called BSA coated wells
In words: ELISA, control wells blocked with BSA. As to the method:
For further confirmation of specific antigen binding ELISA was used to detect binding of A2scFv-Fc2 and A2scFv-Fc2DM to immobilized antigen hPSCA-mFc (FIG. 5). Different concentrations of hPSCA-mFc were coated (1, 3 and 5 μg/mL in PBS, 100 μL/well) overnight, control wells were blocked with BSA. Presence of immobilized antigen was detected using goat anti-mouseFc-AP. […] No nonspecific binding to BSA coated wells was detected.
A general note: ELISA stands for enzyme-linked immunosorbent assay.

The target of experiment [1] is T2, human prostate stem cell antigen (PSCA) on the cell surface (human, UniProt O43653 12-83).
T2 construct: Expressed on transduced cell lines (22Rv1-hPSCA, RM9-hPSCA, KPC-hPSCA) or endogenously on Capan-1; also called hPSCA; 22Rv1-PSCA
T2 sequence: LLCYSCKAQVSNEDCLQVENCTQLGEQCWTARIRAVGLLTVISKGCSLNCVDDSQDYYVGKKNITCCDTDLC
In words: flow cytometry titration on PSCA-expressing cells, apparent on-cell affinity (half-maximal binding). As to the method:
The capability of the anti-PSCA antibody fragments to bind to PSCA expressed on the cell surface was analyzed by flow cytometry. Antigen specificity was confirmed using PSCA-positive and negative cell lines. In this assay binding was only seen with 22Rv1-PSCA cells but not with 22Rv1 (FIG. 9A). […] Binding to murine cell lines transduced to express human PSCA and the human pancreatic cancer cell line Capan-1 was also confirmed using the A2scFv-Fc2 (FIG. 9C).
(In flow cytometry, cells or beads pass a laser one at a time.)

Experiment [2] has as its target T3, recombinant human PSCA-mouseFc fusion protein (human, UniProt O43653 12-83, limits assumed).
T3 construct: also called hPSCA-mFc; Recombinant human PSCA mouse Fc fusion protein (UCLA); not shown: mouse Fc
T3 sequence: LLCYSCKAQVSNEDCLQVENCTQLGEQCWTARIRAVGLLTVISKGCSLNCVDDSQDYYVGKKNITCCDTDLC
In words: saturation binding ELISA on immobilized hPSCA-mFc (1 ug/mL), half-maximal binding, one-site specific binding fit, 3 experiments. As to the method:
Western Blot was also used to test antigen specificity. Recombinant human PSCA mouse Fc fusion protein (UCLA) was blotted and anti-PSCA scFv-Fc variants were tested for binding. Specificity and affinity of antigen binding was further evaluated by performing saturation binding on immobilized antigen in ELISA. Specific binding was fitted using the “one site-specific binding” equation to determine the Kd (ligand concentration that binds half the antigen sites at equilibrium) and Bmax (maximum number of binding sites).
Saturation binding of the anti-PSCA scFv-Fc fragments was tested in ELISA in 3 independent experiments with duplicates. Binding of serial dilutions (1 μM-[…]) of A2scFv-Fc2 and A2scFv-Fc2DM to immobilized recombinant hPSCA-m Fc (1 μg/mL) was specific and dose-dependent (FIG. 6).

T1 sequence (P02769 25-607 limits assumed): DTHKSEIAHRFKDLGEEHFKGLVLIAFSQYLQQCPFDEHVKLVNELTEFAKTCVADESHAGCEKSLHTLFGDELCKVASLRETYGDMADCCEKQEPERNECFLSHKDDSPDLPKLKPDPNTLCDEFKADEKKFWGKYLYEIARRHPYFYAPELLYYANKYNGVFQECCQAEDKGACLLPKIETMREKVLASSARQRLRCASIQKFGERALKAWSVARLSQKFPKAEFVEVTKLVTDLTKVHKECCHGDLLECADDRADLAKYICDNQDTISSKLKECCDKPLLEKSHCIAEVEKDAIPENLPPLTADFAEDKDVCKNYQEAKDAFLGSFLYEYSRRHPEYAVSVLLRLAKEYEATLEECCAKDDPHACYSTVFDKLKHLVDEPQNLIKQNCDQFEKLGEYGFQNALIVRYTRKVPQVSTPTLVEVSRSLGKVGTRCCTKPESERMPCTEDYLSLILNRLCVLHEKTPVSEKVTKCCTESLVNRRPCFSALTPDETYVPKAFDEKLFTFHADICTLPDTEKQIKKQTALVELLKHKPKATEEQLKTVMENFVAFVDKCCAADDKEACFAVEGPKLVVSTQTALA

B1: A2scFv-Fc2 (Fc fusion)
chain: EVQLVESGGGLVQPGGSLRLSCAASGFNIKDYYIHWVRQAPGKGLEWVAWIDPEYGDSEFVPKFQGRATMSADTSKNTAYLQMNSLRAEDTAVYYCKTGGFWGRGTLVTVSSGGGGSGGGGSGGSAQDIQLTQSPSSLSASVGDRVTITCSASSSVRFIHWYQQKPGKAPKRLIYDTSKLASGVPSRFSGSGSGTDFTLTISSLQPEDFATYYCQQWGSSPFTFGQGTKVEIKVECPPCPAPPVAGPSVFLFPPKPKDTLMISRTPEVTCVVVDVSHEDPEVQFNWYVDGMEVHNAKTKPREEQFNSTFRVVSVLTVVHQDWLNGKEYKCKVSNKGLPAPIEKTISKTKGQPREPQVYTLPPSREEMTKNQVSLTCLVKGFYPSDIAVEWESNGQPENNYKTTPPMLDSDGSFFLYSKLTVDKSRWQQGNVFSCSVMHEALHNHYTQKSLSLSPGK
notes: Homodimer of two scFv-Fc peptides: anti-PSCA A2 VH-VL scFv with a (G4S)2-GGSAQ linker, truncated human IgG2 hinge and Fc; Made in FreeStyle 293-F cells, glycosylated at Asn-297; also called anti-PSCA scFv-Fc2
In the case of B1, the binding result in the experiment with BSA was “no binding”. Also, the Kd in experiment [1] amounted to 1.2 nM; in experiment [2], 0.5 nM.

B2: A2scFv-Fc2DM (Fc fusion)
chain: EVQLVESGGGLVQPGGSLRLSCAASGFNIKDYYIHWVRQAPGKGLEWVAWIDPEYGDSEFVPKFQGRATMSADTSKNTAYLQMNSLRAEDTAVYYCKTGGFWGRGTLVTVSSGGGGSGGGGSGGSAQDIQLTQSPSSLSASVGDRVTITCSASSSVRFIHWYQQKPGKAPKRLIYDTSKLASGVPSRFSGSGSGTDFTLTISSLQPEDFATYYCQQWGSSPFTFGQGTKVEIKVECPPCPAPPVAGPSVFLFPPKPKDTLMISRTPEVTCVVVDVSHEDPEVQFNWYVDGMEVHNAKTKPREEQFNSTFRVVSVLTVVAQDWLNGKEYKCKVSNKGLPAPIEKTISKTKGQPREPQVYTLPPSREEMTKNQVSLTCLVKGFYPSDIAVEWESNGQPENNYKTTPPMLDSDGSFFLYSKLTVDKSRWQQGNVFSCSVMHEALHNQYTQKSLSLSPGK
notes: Homodimer; also called A2scFv-FcDM; double mutant
In the case of B2, the binding result with BSA is “no binding”. Further, the Kd in experiment [1] amounted to 0.65 nM; in experiment [2], 0.8 nM.
